Publication PMC3585324, “InterAKTions with FKBPs - Mutational and Pharmacological Exploration” (PLoS ONE, 2013)

Experiments:
GST_Akt1^S473D = molecular target: T1, GST_Akt1^S473D (UniProt P31749 1-480, S473D); assay: pull-down; GST pull-down: 15 µM FKBPs or Cyp40 with 22 µM GST_Akt1 S473D or GST_Akt1 S473D_ΔPH on glutathione resin, 3 h, 4 °C, NETN buffer (20 mM Tris-HCl pH 8.0, 100 mM NaCl, 1 mM EDTA, 0.5% igepal); AMP-PNP (5 mM), rapamycin (1 µM) or DMSO where indicated; Western blot; conditions: both partners purified
T1 construct: Akt1 with the phosphomimetic S473D, called constitutively active; also called purified GST-tagged Akt1S473D; GST-tagged active Akt
T1 sequence (P31749 whole entry S473D): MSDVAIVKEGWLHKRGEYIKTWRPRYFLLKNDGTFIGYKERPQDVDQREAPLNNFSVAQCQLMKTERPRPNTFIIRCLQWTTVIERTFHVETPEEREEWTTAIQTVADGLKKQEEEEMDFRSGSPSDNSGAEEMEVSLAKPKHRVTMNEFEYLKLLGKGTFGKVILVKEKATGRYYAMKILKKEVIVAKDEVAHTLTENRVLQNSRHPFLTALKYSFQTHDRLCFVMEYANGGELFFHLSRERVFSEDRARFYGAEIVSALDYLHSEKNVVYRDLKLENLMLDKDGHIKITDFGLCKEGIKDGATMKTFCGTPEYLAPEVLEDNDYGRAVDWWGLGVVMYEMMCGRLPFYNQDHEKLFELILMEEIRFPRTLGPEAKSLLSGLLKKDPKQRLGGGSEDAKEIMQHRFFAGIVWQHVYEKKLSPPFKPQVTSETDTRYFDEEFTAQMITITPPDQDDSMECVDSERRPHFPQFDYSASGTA

[1] = molecular target: T2, purified inactive Akt1 (untagged) (UniProt P31749 1-480); assay: pull-down; FLAG pull-down: FLAG column saturated with FKBP51_FLAG, 20 µM inactive Akt, NETN buffer, 4 °C overnight, eluted with FLAG peptide; Western blot; conditions: both partners purified
T2 construct: source: bought: Merck Millipore
T2 sequence (P31749 whole entry): as the sequence (P31749 whole entry S473D) above, with D473S counted along it

Row | binding result (GST_Akt1^S473D) | binding result [1] | Binder
1 | binds |  | purified isolated FK506-binding domain of FKBP51 (FKBP51FK1) (domain or fragment, UniProt Q13451 1-140, looked up, detection was with an antibody against the FK1 domain; also called FLAG-tagged FKBP51FK1; source: purified) MTTDEGAKNNEESPTATVAEQGEDITSKKDRGVLKIVKRVGNGEETPMIGDKVYVHYKGKLSNGKKFDSSHDRNEPFVFSLGKGQVIKAWDIGVATMKKGEICHLLCKPEYAYGSAGSLPKIPSNATLFFEIELLDFKGE
2 | binds | binds | purified FLAG-tagged FKBP51 (natural protein, UniProt Q13451 1-457, looked up, FKBP51, His-tagged full length; also called FKBP51_FLAG; purified FKBP51) MTTDEGAKNNEESPTATVAEQGEDITSKKDRGVLKIVKRVGNGEETPMIGDKVYVHYKGKLSNGKKFDSSHDRNEPFVFSLGKGQVIKAWDIGVATMKKGEICHLLCKPEYAYGSAGSLPKIPSNATLFFEIELLDFKGEDLFEDGGIIRRTKRKGEGYSNPNEGATVEIHLEGRCGGRMFDCRDVAFTVGEGEDHDIPIGIDKALEKMQREEQCILYLGPRYGFGEAGKPKFGIEPNAELIYEVTLKSFEKAKESWEMDTKEKLEQAAIVKEKGTVYFKGGKYMQAVIQYGKIVSWLEMEYGLSEKESKASESFLLAAFLNLAMCYLKLREYTKAVECCDKALGLDSANEKGLYRRGEAQLLMNEFESAKGDFEKVLEVNPQNKAARLQISMCQKKAKEHNERDRRIYANMFKKFAEQDAKEEANKAMGKKTSEGVTNEKGTDSQAMEEEKPEGHV
3 | binds |  | purified FKBP52 (natural protein, UniProt Q02790 1-459, looked up, FKBP52, His-tagged full length) MTAEEMKATESGAQSAPLPMEGVDISPKQDEGVLKVIKREGTGTEMPMIGDRVFVHYTGWLLDGTKFDSSLDRKDKFSFDLGKGEVIKAWDIAIATMKVGEVCHITCKPEYAYGSAGSPPKIPPNATLVFEVELFEFKGEDLTEEEDGGIIRRIQTRGEGYAKPNEGAIVEVALEGYYKDKLFDQRELRFEIGEGENLDLPYGLERAIQRMEKGEHSIVYLKPSYAFGSVGKEKFQIPPNAELKYELHLKSFEKAKESWEMNSEEKLEQSTIVKERGTVYFKEGKYKQALLQYKKIVSWLEYESSFSNEEAQKAQALRLASHLNLAMCHLKLQAFSAAIESCNKALELDSNNEKGLFRRGEAHLAVNDFELARADFQKVLQLYPNNKAAKTQLAVCQQRIRRQLAREKKLYANMFERLAEEENKAKAEASSGDHPTDTEMKEEQKSNTAGSQSQVETEA
4 | binds |  | purified FKBP51 ΔFK1_FLAG (domain or fragment, UniProt Q13451 143-457, looked up, FKBP51 without the FK1 domain; It was the only construct not checked by active site titration; also called FKBP51 ΔFK1 construct; pProExHta_ΔFK1; source: purified) FEDGGIIRRTKRKGEGYSNPNEGATVEIHLEGRCGGRMFDCRDVAFTVGEGEDHDIPIGIDKALEKMQREEQCILYLGPRYGFGEAGKPKFGIEPNAELIYEVTLKSFEKAKESWEMDTKEKLEQAAIVKEKGTVYFKGGKYMQAVIQYGKIVSWLEMEYGLSEKESKASESFLLAAFLNLAMCYLKLREYTKAVECCDKALGLDSANEKGLYRRGEAQLLMNEFESAKGDFEKVLEVNPQNKAARLQISMCQKKAKEHNERDRRIYANMFKKFAEQDAKEEANKAMGKKTSEGVTNEKGTDSQAMEEEKPEGHV
